The data set concerns the target T1, NF1 GAP-related domain (GRD) (UniProt P21359).
T1 sequence: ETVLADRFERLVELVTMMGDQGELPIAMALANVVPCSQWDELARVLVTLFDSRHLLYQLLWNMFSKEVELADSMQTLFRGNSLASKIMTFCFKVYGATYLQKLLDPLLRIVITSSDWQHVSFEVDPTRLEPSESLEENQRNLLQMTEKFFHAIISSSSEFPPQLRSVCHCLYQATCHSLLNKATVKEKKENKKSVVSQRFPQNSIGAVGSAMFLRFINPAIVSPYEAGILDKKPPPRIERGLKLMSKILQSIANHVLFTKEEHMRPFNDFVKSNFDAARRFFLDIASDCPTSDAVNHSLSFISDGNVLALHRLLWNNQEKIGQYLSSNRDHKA

Consider purified KRAS^WT loaded with GTP, for which the “GTP hydrolysis by KRAS^WT” value is listed as “conventional RAS-GAPs (such as NF1), which potently enhance hydrolysis by KRAS^WT (FIG. 3B: NF1>>RGS3)”.

The record behind these values is US20240219403.
